Assay results: patent CN111574631A

Legend:
[1] = molecular target: 硫氧还蛋白(Thioredoxin，Trx); assay: indirect ELISA, Trx coated at 1 ug/ml, antibody 125 ng/ml, goat anti-mouse IgG-HRP, OD450 (ref 630)
[2] = molecular target: 硫氧还蛋白(Thioredoxin，Trx); assay: indirect ELISA, Trx coated at 3 ug/ml, supernatant of transiently transfected CHO cells diluted 1000-fold, goat anti-mouse-HRP, OD450 (ref 630)
[3] = molecular target: 硫氧还蛋白(Thioredoxin，Trx); assay: indirect ELISA, Trx coated at 1 ug/ml, antibody 15.63 ng/ml, goat anti-mouse IgG-HRP, OD450 (ref 630)
[4] = molecular target: 硫氧还蛋白(Thioredoxin，Trx); assay: indirect ELISA, Trx coated at 1 ug/ml, antibody 1000 ng/ml, goat anti-mouse IgG-HRP, OD450 (ref 630)
[5] = molecular target: 硫氧还蛋白(Thioredoxin，Trx); assay: indirect ELISA, Trx coated at 1 ug/ml, antibody 0 ng/ml (blank well), goat anti-mouse IgG-HRP, OD450 (ref 630)
[6] = molecular target: 硫氧还蛋白(Thioredoxin，Trx); assay: indirect ELISA, Trx coated at 1 ug/ml, antibody 1.95 ng/ml, goat anti-mouse IgG-HRP, OD450 (ref 630)

Chain of 硫氧还蛋白(Thioredoxin，Trx) (P0AA25 2-109): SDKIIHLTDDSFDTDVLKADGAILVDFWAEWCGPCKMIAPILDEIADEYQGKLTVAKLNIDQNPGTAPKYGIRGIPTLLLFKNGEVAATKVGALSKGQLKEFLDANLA

B1: 实施例4的硫氧还蛋白的单克隆抗体(WT) (antibody, mouse IgG1, kappa, V domains shown)
VH: EVQLQQSGPMLVKPGASVTISCKASGFTITDYNLHWVRQSHGKSLEWIGYITSYNGGTGYNQKFKTKATLTVDKSSTTAYMELRSLTSDDSALYYCARNFRNYFEHWGQGTTLTVSS
VL: DIQMTQPTSSLSASLGDRVTISCRASQDLYNSINWYQQKPDGTVKLLIYYTSRIHSGVPSRFSGSGSGTDYSLTISNLEQEDIATYFCQQGNSIPRTFGGGTKLEIKR
[1]
  OD: 2.14 OD
[2]
  OD: > 1 OD
[3]
  OD: 1.62 OD
[4]
  OD: 2.31 OD
[5]
  OD: 0.057 OD
[6]
  OD: 0.488 OD
